Assay results from US9447157B2, “Nitration shielding peptides and methods of use thereof” (Augusta University Research Institute, Inc., priority 2013, dated 2016).
“Also recorded” adds a separate entry of the source. No end group written: not given here. *: point of attachment. X1 = 3‑carboxy‑2,2,5,5‑tetramethyl‑3‑pyrrolin‑1‑yloxy, CC1(C)C=C(C(=O)*)C(C)(C)N1[O]

Tests used:
RhoA [1] = biological target: T1, RhoA (Homo sapiens, UniProt P61586); assay: Stopped-flow kinetic analysis of mant-GDP/mant-GTP binding to RhoA; design: polyHis (6His); made in house; host or cells: Escherichia coli BL21; Binding constant of GDP to RhoA / GTP binding constant of RhoA: unit not given here; conditions: stop-flow, RhoA with or without peroxynitrite (100 μM, 30 min); for Binding constant of GDP to RhoA: mant-GDP; for GTP binding constant of RhoA: mant-GTP
Procedure: RhoA was treated with authentic peroxynitrite (500 μM, 30 min) to induce tyrosine nitration in buffered solution. For kinetic analyses, 2 μM of either mart-GTP or -GDP was mixed with RhoA (0.1 μM) in a stopped-flow instrument (SX-20, […]). Increases in fluorescent intensity mant-nucleotide binding to RhoA were then measured using excitation 350 nm and cutoff filter 395 nm for 0.2-1 second. Acquired kinetic curves for 3-5 experiments were averaged and fitted using the Pro-kineticist software to determine observed binding constants.
To test the validity of the MD data kinetic studies were performed. His-tagged human RhoA construct was expressed in the Escherichia con BL21 strain. First, the bacterial lysate was purified by 6His-tag affinity on a Ni-NTA column. Second, the proteins in the elution fraction from the affinity purification were separated by size-exclusion chromatography (FIG. 11). The fraction containing RhoA was identified both by Coomassie blue staining and Western blot analysis. The recombinant purified RhoA was subjected to rapid flow kinetics to evaluate GDP and GTP binding using fluorescently labeled guanine nucleotides. Peroxynitrite decreases GDP binding to purified RhoA. Human recombinant RhoA was exposed to authentic peroxynitrite (100 μM, 30 min) on ice. The kinetics of binding fluorescently labeled GDP (FIG. 12A) or GTP (FIG. 12B) to RhoA was then performed using stop-flow analysis. Three measurements were averaged and fitted with bimolecular reaction equation. […] However, nitration of RhoA had no effect on the GTP binding constant ([…]).

[2] = test system: human lung microvascular endothelial cells (HLMVEC); assay: Endothelial monolayer resistance (ECIS, TER) in LPS-challenged HLMVEC; type: cell-based; conditions: for Attenuation of LPS-mediated decrease in transendothelial resistance (TER) / barrier disruption: HLMVEC, LPS 1 EU/ml, MnTMPyP 25 μM, ETU 200 μM, 1400W 100 μM
Procedure: The electrical resistance of the endothelial cell monolayer was measured with the electrical cell impedance sensor (ECIS) technique. In this system, the cells are cultured on gold plated electrodes. The change in resistance across the monolayer is measured through an amplifier attached to the arrays. Each study was performed when the resistance reached a plateau. The data was normalized to the initial voltage and plotted as a normalized resistance.
To examine if protein nitration by peroxynitrite is a contributing factor in endothelial barrier disruption in response to LPS, transendothelial resistance (TER) was measured in HLMVEC in the presence or absence of the peroxynitrite scavenger, MnTmPyp. HLMVEC were challenged with LPS (1 EU/ml) in the presence or absence of the peroxynitrite scavenger, MnTMPyP (25 μM).
To evaluate the role played by NOS in the barrier dysfunction, HLMVEC were exposed to LPS in the presence or absence of ETU (a non-specific NOS inhibitor) or 1400W (to inhibit iNOS). HLMVEC were challenged with LPS (1 EU/ml) in the presence or absence of the general NOS inhibitor, ETU (200 μM) or the iNOS specific inhibitor, 1400W (100 μM). The LPS-mediated decrease in TER was attenuated in the presence of ETU, but not 1400W (FIG. 1B). The important role of eNOS was then confirmed using a siRNA approach. HLMVEC were transiently transfected with a siRNA against eNOS or a scrambled control siRNA. After 48 h, there was a significant knockdown of eNOS protein levels (50%), as determined by Western blotting. Reducing eNOS protein levels preserved HLMVEC barrier function when challenged with LPS (FIG. 1C).

RhoA [3] = biological target: T1, RhoA; assay: RhoA activity, Rhotekin RBD pull-down, in LPS-treated HLMVEC; type: cell-based; design: endogenous in cells; host or cells: HLMVEC (human lung microvascular endothelial cells); conditions: MnTMPyP 25 μM 30 min pre-treatment, LPS 1 EU/ml 4 h
Procedure: RhoA activity levels were measured using the Rhotekin Rho Binding Domain (RBD) pull-down assay. Briefly, 2×10^6 cells were seeded in 10 cm dishes and incubated overnight in DMEM with 10% FBS and 5% antibiotics. The cells were then pretreated with the peroxynitrite scavenger, MynTMPyp (25 μM), for 30 min. The cells were treated with LPS (1 EU/ml) for 4 h. The level of active RhoA pulled down by the assay was measured by Western blot analysis (see above).

RhoA [4] = biological target: T1, RhoA; assay: RhoA nitration, immunoprecipitation and 3-NT blot, in LPS-treated HLMVEC; type: cell-based; design: endogenous in cells; host or cells: HLMVEC (human lung microvascular endothelial cells); conditions: MnTMPyP, LPS 1 EU/ml 4 h
Source text: HLMVEC were lysed and centrifuged at 6,000×g and the supernatant collected as previously described (Sud, N., et al., Am. J. Physiol. Lung Cell Mol. Physiol. 293, L1444-1453 (2007); Sharma, S., et al., Am. J. Physiol. Lung Cell Mol. Physiol. 294, L46-56 (2008)). Cell extracts were separated on 4-20% gels and electrophoretically transferred to PVDF membrane (Bio-Rad), then blocked with 5% nonfat dry milk in Tris-buffered saline. The membranes were probed with antibodies to RhoA (Cell Signaling), eNOS (BD), iNOS (Cell Signaling), or 3-Nitrotyrosine (Calbiochem). Reactive bands were visualized using chemi-luminescence (Pierce) on a Kodak 440CF image station. Band intensity was quantified using Kodak 1D image processing software. Protein loading was normalized by re-probing with mouse anti-β-actin.
HLMVEC were homogenized in IP buffer (25 mM Hepes, pH 7.5, 150 mM NaCl, 1% NP-40, 10 mM MgCl2, 1 mM EDTA, 2% glycerol supplemented with protease inhibitors). To precipitate the bound protein, 10 μl of a protein A/G agarose suspension (EMD/Calbiochem) was added for 2 h at 4° C. The samples were then centrifuged at 14,000 rpm for 5 min, the supernatant removed, and the beads washed 3× with IP buffer. Twenty μl of 2× Laemmli buffer was added, the samples were boiled for 5 min, and analyzed as described above. Immunoprecipitation efficiency was normalized by re-probing with RhoA.

HLMVEC = assay: Total protein nitration (3-NT/β-actin) in LPS-treated HLMVEC; type: cell-based, human; conditions: peptide 100 ng/ml 30 min, then LPS 1 EU/ml
Source text: Cell extracts were separated on 4-20% gels and electrophoretically transferred to PVDF membrane (Bio-Rad), then blocked with 5% nonfat dry milk in Tris-buffered saline. The membranes were probed with antibodies to RhoA (Cell Signaling), eNOS (BD), iNOS (Cell Signaling), or 3-Nitrotyrosine (Calbiochem). Reactive bands were visualized using chemi-luminescence (Pierce) on a Kodak 440CF image station. Band intensity was quantified using Kodak 1D image processing software. Protein loading was normalized by re-probing with mouse anti-β-actin.

RhoA [5] = biological target: T2, RhoA (Mus musculus, UniProt Q9QUI0); assay: RhoA activity, nitration and protein in lungs of LPS treated mice; type: in vivo
T2 construct: from tissue; host or cells: mouse lung (male C57Bl/6)
Procedure: The Committee on Animal Research at Georgia Regents University approved all animal protocols and procedures. Stock solutions of Escherichia coli LPS (0111:B4) were prepared in saline. […] Mice were examined 24 h after LPS treatment. At the end of the treatment lungs were flushed with 3 ml of ice-cold PBS (5 mM EDTA), excised, dipped in saline and blotted dry. A portion of the lung was quickly snap-frozen in liquid nitrogen, crushed to powder in a pre-chilled mortar and stored at -80° C. The remaining lung tissue was stored at -80° C. […] After 24 h, mice were sacrificed and lung tissue was obtained to determine RhoA activity and RhoA nitration, LPS induced RhoA activation in the mouse lung as in HLMVEC (FIG. 7A). […] Total RhoA protein levels and basal RhoA nitration were measured. […] Likewise, basal RhoA nitration levels (FIG. 7D) were unchanged.

RhoA [6] = biological target: T1, RhoA; assay: Biotin pull down assay of peptide binding to RhoA; design: polyHis (6His); made in house; host or cells: Escherichia coli BL21; conditions: peptide 100 ng/ml, recombinant human RhoA 0.1 mg
Procedure: To evaluate the ability of each peptide to bind to RhoA each peptide (100 ng/ml) was mixed with recombinant human RhoA (0.1 mg) for the biotin pull down assay.

Recombinant human PKG-Iα = biological target: T3, Recombinant human PKG-Iα (Homo sapiens, UniProt Q13976); assay: PKG-Iα activity assay with SIN-1 and shielding peptide; type: biochemical
T3 sequence (Q13976 2-671): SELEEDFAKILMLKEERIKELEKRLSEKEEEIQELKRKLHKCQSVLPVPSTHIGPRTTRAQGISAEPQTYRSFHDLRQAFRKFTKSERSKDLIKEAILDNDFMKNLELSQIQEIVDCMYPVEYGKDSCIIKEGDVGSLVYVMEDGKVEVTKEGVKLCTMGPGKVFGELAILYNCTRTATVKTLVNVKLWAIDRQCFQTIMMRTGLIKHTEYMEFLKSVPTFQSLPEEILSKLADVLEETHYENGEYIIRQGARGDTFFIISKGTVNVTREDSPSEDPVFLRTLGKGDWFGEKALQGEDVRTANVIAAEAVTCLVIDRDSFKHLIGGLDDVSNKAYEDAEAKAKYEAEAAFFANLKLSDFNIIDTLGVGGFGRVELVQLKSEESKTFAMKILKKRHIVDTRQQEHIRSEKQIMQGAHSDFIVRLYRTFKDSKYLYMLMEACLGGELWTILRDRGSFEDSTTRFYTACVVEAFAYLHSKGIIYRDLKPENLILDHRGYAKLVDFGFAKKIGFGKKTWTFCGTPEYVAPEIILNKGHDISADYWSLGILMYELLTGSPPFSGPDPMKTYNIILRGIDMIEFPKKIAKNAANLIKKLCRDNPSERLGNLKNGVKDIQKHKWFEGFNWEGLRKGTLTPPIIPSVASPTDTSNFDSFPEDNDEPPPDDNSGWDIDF
Procedure: A PKG-Iα activity assay was carried out using HLMVEC. Recombinant human PKG-Iα18 was exposed to the peroxynitrite generator, SIN-1 (200 μM, 10 min) with increasing concentrations of the shielding peptide (0-10 μg).

T1 sequence (P61586 whole entry): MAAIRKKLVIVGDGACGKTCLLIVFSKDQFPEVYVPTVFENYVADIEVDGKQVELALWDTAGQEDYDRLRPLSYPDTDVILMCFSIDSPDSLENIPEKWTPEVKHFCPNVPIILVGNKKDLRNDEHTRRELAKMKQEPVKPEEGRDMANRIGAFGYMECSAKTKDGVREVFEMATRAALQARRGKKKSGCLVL
T2 sequence (Q9QUI0 whole entry): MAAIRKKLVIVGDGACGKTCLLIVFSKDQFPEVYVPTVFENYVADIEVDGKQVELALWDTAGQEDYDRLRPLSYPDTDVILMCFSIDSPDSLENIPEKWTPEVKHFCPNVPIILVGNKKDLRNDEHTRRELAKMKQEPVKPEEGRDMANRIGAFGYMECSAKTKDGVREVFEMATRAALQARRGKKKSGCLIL

RhoA: His-tagged human recombinant purified RhoA
Binding constant of GDP to RhoA (RhoA [1]): 19.8
GTP binding constant of RhoA (RhoA [1]): 38.7

MnTMPyP
Attenuation of LPS-mediated decrease in transendothelial resistance (TER) / barrier disruption [2]: significantly attenuated
Attenuation of LPS-induced increase in RhoA activity (RhoA [3]): attenuated
Attenuation of LPS-induced RhoA nitration (RhoA [4]): attenuated

CCSC(=N)N [ETU]
Attenuation of LPS-mediated decrease in transendothelial resistance (TER) / barrier disruption [2]: attenuated

HRKKRRQRRRQFPVFVPTVF (SEQ ID NO:35) (listed as Homo sapiens) [NipR1F, control peptide in which Y34 was substituted with a phenylalanine residue]
Increase in total protein nitration induced by LPS (HLMVEC): unaffected
Basal RhoA nitration levels in mouse lung (RhoA [5]; peptide alone, no LPS): unchanged
Total RhoA protein levels in mouse lung (RhoA [5]; peptide i.p. 0.1 mg/kg, with or without LPS): Neither peptide nor LPS treatment altered
Interaction between RhoA and biotinylated peptide (RhoA [6]): strong interaction

RhoA+ONOO: human recombinant RhoA exposed to authentic peroxynitrite (nitrated)
Binding constant of GDP to RhoA (RhoA [1]): 4.03
GTP binding constant of RhoA (RhoA [1]): 36.2

GALRQKNVK(X)-amide (SEQ ID NO:29), where X is 3-carboxy-2,2,5,5-tetramethyl-3-pyrrolin-1-yloxy (nitroxide) (GALRQKNVK(X1)-NH2; N-terminus assumed; SMILES CC(C)C[C@H](NC(=O)[C@H](C)NC(=O)CN)C(=O)N[C@@H](CCCNC(=N)N)C(=O)N[C@@H](CCC(N)=O)C(=O)N[C@@H](CCCCN)C(=O)N[C@@H](CC(N)=O)C(=O)N[C@H](C(=O)N[C@@H](CCCCNC(=O)C1=CC(C)(C)N([O])C1(C)C)C(N)=O)C(C)C; listed as Homo sapiens) [shielding peptide]
Barrier function when challenged with LPS ([2]; in vitro, LPS challenge): preserved
PKG-Iα activity against peroxynitrite (Recombinant human PKG-Iα; SIN-1 200 μM, 10 min, shielding peptide 0-10 μg): preserves; also recorded: dose-dependently preserved
Physiologic PKG-Iα activity (Recombinant human PKG-Iα; in vitro): did not alter
